# Measured values: patent US20120253013A1
# Target: HGF receptor c-Met on uninfected HUVECs (human) (UniProt P08581)
# Assay: cell-based or functional assay
# Chain of UniProt P08581 (P08581 25-1390): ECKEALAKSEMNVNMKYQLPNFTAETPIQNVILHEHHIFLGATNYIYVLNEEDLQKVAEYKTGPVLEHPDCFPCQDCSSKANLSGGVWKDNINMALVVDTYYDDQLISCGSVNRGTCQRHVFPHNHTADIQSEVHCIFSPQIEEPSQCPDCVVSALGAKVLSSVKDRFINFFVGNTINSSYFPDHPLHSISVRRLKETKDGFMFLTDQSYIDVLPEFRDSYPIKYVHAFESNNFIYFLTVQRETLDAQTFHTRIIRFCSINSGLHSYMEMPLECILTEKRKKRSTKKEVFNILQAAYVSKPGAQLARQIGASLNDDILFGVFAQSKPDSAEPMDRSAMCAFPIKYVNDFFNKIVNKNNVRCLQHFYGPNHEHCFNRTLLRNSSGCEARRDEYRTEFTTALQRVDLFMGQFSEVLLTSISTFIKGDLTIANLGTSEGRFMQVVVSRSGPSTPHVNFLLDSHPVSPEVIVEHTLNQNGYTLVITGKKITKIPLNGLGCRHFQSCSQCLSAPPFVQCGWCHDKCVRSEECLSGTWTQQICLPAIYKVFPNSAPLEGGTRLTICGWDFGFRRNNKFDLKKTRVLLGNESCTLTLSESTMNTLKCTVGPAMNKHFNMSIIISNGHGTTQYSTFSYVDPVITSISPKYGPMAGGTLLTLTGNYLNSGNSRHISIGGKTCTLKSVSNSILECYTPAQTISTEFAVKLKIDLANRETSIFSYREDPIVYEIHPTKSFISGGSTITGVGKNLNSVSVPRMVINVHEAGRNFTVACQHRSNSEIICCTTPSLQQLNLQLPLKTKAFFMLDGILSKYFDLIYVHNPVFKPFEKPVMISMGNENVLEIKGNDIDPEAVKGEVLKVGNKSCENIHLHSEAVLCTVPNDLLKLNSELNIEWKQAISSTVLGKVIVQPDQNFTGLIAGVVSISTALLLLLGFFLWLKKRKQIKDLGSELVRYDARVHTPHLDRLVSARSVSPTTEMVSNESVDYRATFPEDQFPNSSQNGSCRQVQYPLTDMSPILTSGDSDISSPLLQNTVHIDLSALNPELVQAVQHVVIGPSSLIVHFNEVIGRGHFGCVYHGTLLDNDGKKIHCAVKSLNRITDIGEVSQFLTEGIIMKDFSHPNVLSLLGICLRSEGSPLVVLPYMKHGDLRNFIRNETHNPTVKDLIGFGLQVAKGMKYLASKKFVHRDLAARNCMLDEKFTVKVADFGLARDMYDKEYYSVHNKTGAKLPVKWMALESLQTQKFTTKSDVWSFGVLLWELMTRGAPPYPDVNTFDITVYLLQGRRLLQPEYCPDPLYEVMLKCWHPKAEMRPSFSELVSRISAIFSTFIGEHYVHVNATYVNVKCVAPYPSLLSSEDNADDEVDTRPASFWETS
substance,measurement,value
hepatocyte growth factor (HGF) in conditioned medium from Ad-Egr3 infected HUVECs (from UniProt P14210 32-728) (ligand),"c-Met receptor phosphorylation on tyrosine 1234/1235 (PathScan Phospho-Met Sandwich ELISA), fold increase against Ad-lacZ",1.8 fold
